Experimental data reported in the DeepSol protein solubility set.

Test: soluble on expression in E. coli; label from the status in PepcDB or PDB records
For “MAHHHHHHMSVRERAVVLVDGPAVVHRWYHRWSYTSKHTPVDVKRFTITNARHIIATAHSFDPSHLAQHLLSPQVEYAHTPKHNKIIVCFDQGDGGRRELYPAYKENRAEREHAAELSVIKKVAIKVFTGEPKNTLIVLPDLDAKLKDVDAEADDIIATLALHNQQLKIPTVVMSHDYDLYQLIDEANKCYHYDIRTKHLVSEKGVIERVGVHPKLVRDYKSLAGDSSDNIPGVKGIGKTRALQLLKKYGDLEGVLTKGKKKQGGHLGDLLRAGAADAELSRKLVELRSCPKVLKACEAFMKL”, the “soluble on expression in E. coli” value was “soluble”. With “MGSDKIHHHHHHMNWWLDPRIFEADNSELAMVLHPEWLNRRDVETIICDGSVRAGKTLIMSMSYVLWSMTNYNEEQFGIAGKTIGSLRRNVIRPLMRMLRGRGYEVKDKRADNLLVISHNGVTNYYYLFGGKDEGSQDLVQGITVAGFFFDEVALMPESFVNQATARASVDGAKFWFNCNPAGPYHWFKLEWLDQLDQHKAIHIHFTMKDNPSLSPETIDRYERMYTGVFYQRFILGQWVLSDGIIYDNFDKNKMVVKNPQGTARKYAVSIDYGTLNPTVFLMWGLYGDTWHLTKMYYYDGRHKHKQKTDEEYSAELDRFEDGLNPVEIIDPSAASFITLRRRGGHHVIKADNDVLDGIRKTGMAMNTGKIVFSPDLADLFKEFASYVWDEKAAEHGEDKPVKQHDHAMDAMRYFVMYMIGRQPTIQTFKLG” the “soluble on expression in E. coli” value was “not soluble”. For “MARFSSVLIYDGECPYCSVAAKALEQVDDIGAISWYDESAQSFLTAQFDEPPFAMVLVDRPAQQVYAGRAAAEELAGRAGLPDLVGSLVRDNYEKIAHVVGLASGRGLEHHHHHH”, the “soluble on expression in E. coli” value was “not soluble”. With “MEVSTVNDVKIYNLSAGKSLPEWMSSRTRRKLEQRNTDVRQRIQLIQDFEMPDVSNTVNITPDGKYVWASGNYKPWLRCYDLNNLSLKFERGLDADVIKLIPLSDDYSKVVILEEERWIEMHAMLGRYFRMRMPCQGRDMALSEESSDLYLVGSKSEVYRFNLEQGCWLTPFESTAPLNCVQVCTEHQLICCGTTNGVVEAWDHRDKSLCGTLDAGSSVNSHIGENQKVAVTSVAFSDPLHIGVGTSTGQILIYDLRARRPLLIKDHNNELPINKLDFIKRDDGDVVASMDSRMMKLWHEEDGSPMAAIENTCPLNDFCRFPNSGMFFFANEAPKMLQYFIPQLGPAPKWCSYLENLTEEMEETETTVYDNYRFVTKKQLDDLGLSGLIGTNVLRAYMHGYFIDARLYNKAQTQMQPFAYEKYKDEKIKSMIADEREESAVKKKVEKLPAVNKALAARLRDEASAANQKAETKKEKKKSKKSDAATSLLADDRFKKLFESEDFEVDETSEQFLKNASIAQKMKAKGPVEVESEGEESEDNDASDSENEASGSDSEPKGSASWMVEENREVDMASDLESASSDEDIDQSLKAKRAKVRAAKKSERNIQKSQKYDERKEAKKIRKEQRQLSKPSKFVLHSIGTGETTRKFVDETVAVRDDADNKDSMALGARKRATARSDRKTKKVNDDDVPFGGREMTFTISKRDKDLRAEAAKTKQAAHAAERKEVSRRPNALVTKGLKKLPGNVNVGKRQNTF” the “soluble on expression in E. coli” value was “soluble”. With “MEKVKVKNPIVELDGDEMARVMWKMIKEKLILPYLDIQLVYFDLGIKKRDETDDQITIEAAKAIKKYGVGVKCATITPDAERVKEYNLKKAWKSPNATIRAYLDGTVFRKPIMVKNVPPLVKRWKKPIIIGRHAYGDIYNAVEAKVEGPAEVELVVRNKENKTLLVHKFEGNGVVMAMHNLEKSIRSFAQSCINYAISEKVDIWFATKDTISKVYHAYFKDIFQEEVDKRKEELEKAGVNYRYMLIDDAAAQILRSEGGMLWACMNYEGDIMSDMIASGFGSLGLMTSVLVSPDGVYEFEAAHGTVRRHYYRYLKGEKTSTNPTASIFAWTGAIRKRGELDGTPEVCEFADKLEKAVINTIESGVITKDLQPFTEPPIDKYVTLEEFIDEVKKNLEKLL” the “soluble on expression in E. coli” value was “soluble”. In the case of “MGSDKIHHHHHHMLTYDLTKTDGPLYKCLYECIKNDISQGKLSSGEKMPSKRTLAKNLGVSTITVENAYDQLIGEGYMFARPKKGYFIADVSDIRVIKAPVQKELSIKLPPEQDESIFDFSSNRTDSGNFPFSIWAKLMRETISLREQELLSVSPCGGVRELREAIASHLSSFRGMNVDPDQIIVGAGTEYLYGLLVKLLGTDKVYCVEDPGYKKISQIYECNNAKCLPVQMDEQGISVELIKKANAQIAHISPTHHFPTGITMPVNRRYELLAWANESSDRYIIEDDYDSEFRMNGHPIPPILSIDACEKVIYINTFSKSLTSTIRISYMVLPEHLANEFYRRLSFYSCTVSTFEQYTLARFISEGYFEKHINRMRLHYGRKRQSVLSSIKGCFTEKECRVIENDSGLHFIIQFDTNLPDKTVEERLLKKGIKLQAITHFNLIKPKEDRHQFIINYSNIDADRIMDELLIIKDTIL”, the “soluble on expression in E. coli” value was “not soluble”. With “MSLDAKLRYKAKKIKIVFFDIDDTLRNSKTGFIPTTIPTVFKQLREKGILTGIASGRGIFGVVPEIRDLKPDFFVTLNGAYIEDKKGQVIYQHQIEKSDVEEYISWAKQEGIEYGLVGSHDAKLSTRTDMMSEAINPIYPDLDVDPGFHEKEDIYQMWTFEDKGDDLHLPDSLSDKLRMVRWHQHSSDIVPISGSKATGVEKVVEHLGLKPEKVMVFGDGLNDLELFDYAGISVAMGISHDKIKEKADYITKTLEEDGIFDALEVFGMVEKELHFPQVDIETVEGPLATIKTNHGDLRIKLFPEHAPKTVANFVSLSKDGYYDGVIFHRIIKDFMIQGGDPTGTGMGGESIYGESFEDEFSEELYNIRGALSMANAGPNTNGSQFFIVQNQHLPYSKKEITRGGWPEPIAEIYANQGGTPHLDRRHTVFGQLADEASYAVLDVIAAVETGAMDKPVEDVVIETIEIEDEGHHHHHH” the “soluble on expression in E. coli” value was “soluble”. For “GAMERKANYAVDAYFREALRVSEPKAPKAPRPPKQPIVQDFQFFPPRLFELLDQEIYYFRKTVGYKVPKNTELGSDATKVQREEQRKIDEAEPLTEEEIQEKENLLSQGFTAWTKRDFNQFIKANEKYGRDDIDNIAKDVEGKTPEEVIEYNAVFWERCTELQDIERIMGQIERGEGKIQRRLSIKKALDQKMSRYRAPFHQLRLQYGNNKGKNYTEIEDRFLVCMLHKLGFDKENVYEELRAAIRASPQFRFDWFIKSRTALELQRRCNTLITLIERENIELEEKERAEKKKKAPKGSVSAGS”, the “soluble on expression in E. coli” value was “soluble”. For “MSDVIFLRQYDDIDIVSSPSQNNIIFGHEAARHFLAQILKEERLPHAILFEGDYGIGKATLAFHLAWNILSSQKDGFKQPEHNSVIWRQITQGSHPGLLHISRRFDVKTQKFKTGILFDDIRDIIHFLNRTSKDSGWRIVIIDPADDMNRNAANAILKTLEEPPAKTLFIIITHFSGKLLPTIRSRCQQISLRPLHNDEMKKIIIHMFSNQNVIDEENIGMIIQKSNGNPRKAALLIHGGFEIIKTIDTLLGQSVCNPTIVHNLAQTLSSLSSVIQFQQFCDEILDKIQKKAIMLAERGNLALSKKCAQAWQEIHQEIGEIQSFNLDKKQFIINLLFRVHKIICESELFP”, the “soluble on expression in E. coli” value was “not soluble”. With “MFGISFSELLLVGLVALLVLGPERLPGAARTAGLWIGRLKRSFNTIKQEVEREIGADEIRRQLHNEHILSMEREAQKLLAPLTGQNPPQETPPPAAESPAPSVPTPPPTSTPAVPPADAAAPPAVAASTPPSPPSETPRNPLEHHHHHH” the “soluble on expression in E. coli” value was “not soluble”. In the case of “MGSDKIHHHHHHMIVTEYELLVCLAEELNMRKSAEKLFLSQPALSQRLQTIESRWNTKIFIRTQKGLLLTPEGEAIVRHASSVIEREHTIQEKLEAMEGVVRGTLRIACASVVAQMWLPRVLKAFSRTYPNVQISLVTGWSSEVTQQLAAGNVHIGIVRGSSTWKSVQKPLFNDKLILVDTEITKIEEVFQTNRPFIQFRSDSNYYQVIQDYWQRNFGKMPRQAMLMDQMETSRQMALNGIGFAILPEVTMIGYTDKINKIPLTEKDGSILSRETNLLTYEQSLSLPQVKAFLEITDKFLEQVK”, the “soluble on expression in E. coli” value was “not soluble”. In the case of “MAYLYELEGIYAQLQSMDLDEETFQDTLDSIDFQSDLENNIEYFVKMLKNVQADAEKYKAEKEAFYKKQKQAEAKAEKYKETIRLAMELSQKKKVDAGMFKVSLRRSKKVEILDETKIPLDYMQEKIEYKPMKAEISKALKSGIDISGVELIETESLQVK”, the “soluble on expression in E. coli” value was “not soluble”. With “MGHHHHHHSHMAYEISKKVLHIVGKTNATYKLIEEGDKILLGLSGGKDSIMLACILARMQKHAPFKFDFKAVTVHYGLGEDLKWLSDLCQEQGIEHEIIYTQIAATINEKRREKSSFCSFCSRLRRGTLYSKALEEGYNKVAIAHHLDDAVESFFMNFTYNGSLRSMPPIYRAENGLLVIRPLIKVREASSIHFVTSQNIPVAPDCNCPAKQPTSDKPPIARLATKNFLKEMQNLHPRFFDSLENAFNNVQANSFSDAKYLDA” the “soluble on expression in E. coli” value was “not soluble”. In the case of “MGAAKASLGRIFPESSILFLCDMQEKLRDRILYFPQIVSMAARMLKVAQMLEIPVLLTEHYPQGLGPTVPELGAQGLRTMSKTSFSMVPPLQQELDKLPQLQSVLLRGIETQGCILHTALDLLDRGLQVHVAVDACSSQSEMNRLVALARMQQSGVFLSTSEVLILQLVKDAAHPQFKEIQKILKEPVTDIGLLGFFQGKKNSLLPNSRT”, the “soluble on expression in E. coli” value was “not soluble”. In the case of “MGSDKIHHHHHHMRAPQAQSKLSEVLEFLQQYEGTINPNKLIFGRWIKDAQALRLVDPSEGYMMEAWVYRAQGKLDKALEYMKNAYRLDSSSSSVNVNYASLLLSSGDFNESEKLCIKRIRLDRTNTDIFKILITNTLHTFNQDALFEAIELFIPTNPEAEKVIGQAKKRIFDFDHMQSTLESANLSIEVYKRFSSITQKVRNTRYIGESRTVINCEVNELGTFLLIDEALVNASIEDCLSMYDDLVEEIINDDHYFEEYKKIIFNFIPTTSTAINSAYQLEI”, the “soluble on expression in E. coli” value was “not soluble”. In the case of “MKRFGRFAGIALVLVVAALTARSCFSHDLIVRLSDRKEISFKQMMGDLRKVAVIYVGEVHDNPDHHVLQLRIIRGLHRAGVPLAIGMEMFTAGSQQELDRWVAGQTGTAAFQRIYRREWNLPWSLYGDILLFARDKRIPLIGLNVPRDITRKVGREGFASLTEDERRKLPPNITCDVDESYMAMIHRSYSSHGLSANTFRNFCEAQMLWNKSMAYHMVEYLRKNPGRTVVVITGGGHAIRGGMPVQVDRERPGLSSRVVLPDPVVRNGRIKAEEADYLWLSHLEHHHHHH”, the “soluble on expression in E. coli” value was “not soluble”. With “MGSDKIHHHHHHMTPTVLLANPRGFCAGVDRAIAIVERALEKFGAPIYVRHEVVHNTFVVDDLKRKGAVFVEELSEVPAGATVIFSAHGVSQAVRTEAAARGLTVFDATCPLVTKVHVEVSKMRDKGYEIVMIGHKGHPEVEGTLGQSAGGMYLVETPGDVATLEVTNPDCLAYVTQTTLSVDDAARVVDALRARFPTITGPKKDDICYATQNRQDAVKHLASQCDVVIVVGSPTSSNSNRLREVAENLGIAAYMVDNADEIDPRWVSGNQRVGVTAGASAPDVLVRAVIDRLERLGICSVSELDGVQEKVGFPLPRELA” the “soluble on expression in E. coli” value was “not soluble”. For “MRSDVIKKGLERVPHRSLLKALGITDDEMRRPFIGIVSSWNEIIPGHVHLDKVVEAVKAGVRMAGGVPFVFPTIGICDGIAMDHRGMKFSLPSRELIADSIEIVASGFPFDGLVFVPNCDKITPGMMMAMGRLNIPSVLISGGPMLAGRYNGRDIDLITVFEAVGGYKVGKVDEETLKAIEDLACPGAGSCAGLFTANTMNSLAEALGIAPRGNGTVPAVHAKRLRMAKEAGMLVVELVKRDVKPRDIVTLDSFMNAVMVDLATGGSTNTVLHLKAIAESFGIDFDIKLFDELSRKIPHICNISPVGPYHIQDLDDAGGIYAVMKRLQENGLLKEDVMTIYLRKIGDLVREAKILNEDVIRPFDNPYHKEGGLGILFGNLAPEGAVAKLSGVPEKMMHHVGPAVVFEDGEEATKAILSGKIKKGDVVVIRYEGPKGGPGMREMLSPTSAIVGMGLAEDVALITDGRFSGGSHGAVIGHVSPEAAEGGPIGIVKDGDLIEIDFEKRTLNLLISDEEFERRMKEFTPLVKEVDSDYLRRYAFFVQSASKGAIFRKPAAALEHHHHHH”, the “soluble on expression in E. coli” value was “soluble”.
